Data as given in article PMC5551578 (The Journal of Experimental Medicine, 2017).
Like-named read-outs stand apart in the source and are kept apart here.

Columns and labels:
[1] = target: T1, H5N1 HA (A/Vietnam/1194/2004) (Influenza A virus A/Vietnam/1194/2004 …, UniProt A5A5M5, strain)
[2] = target: T2, H1N1 HA (A/California/04/2009) (Influenza A virus A/California/04/2009 …, UniProt C3W5S1, strain); assay: ELISA
T2 construct: source: bought: Sino Biological

[3] = target: T1, H5N1 HA (A/Vietnam/1194/2004); assay: ELISA; conditions: one partner purified
[4] = target: T3, H2N2 HA (A/Japan/305/1957) (Influenza A virus A/Japan/305/1957 …, UniProt P03451, strain); assay: ELISA; conditions: one partner purified
T3 construct: source: bought: Sino Biological

[5] = target: T4, H3N2 HA (A/Perth/16/2009) (Influenza A virus A/Perth/16/2009 (H3N2), UniProt C6KNH7, strain); assay: ELISA; conditions: one partner purified
T4 construct: also called H3N2 hemagglutinin; source: bought: Sino Biological

B1: H5-Ab3 (antibody, V domains shown)
VH: EVQLVESGGGLVKPGGSLRLSCAASGFTFSTYSMNWVRHAPGKGLEWVSSISSGSNYIYYADSVKGRFTISRDNAKNSLYLQMNNLRAEDTAVYHCARDRGESSYYWFDPWGQGTLVTVSS
VL: QSALTQPASVSGSPGQSITISCTGTSSDVGAYDYVSWYRQHPGEAPKLLIYDVARRPSGVSFRFSGSKSGNAASLTISGLQAEDEADYFCSSYAGTTIWVFGGGTKLTVL
binding result [1]: binds

B2: H5-Ab4 (antibody, V domains shown)
VH: EVQLVESGGGAVQPGRSLRLSCAVSGFTFSSYGMNWVRQAPGKGLEWVAVISYDGSNTYYADSVKGRFTISRDDSKNTLFLQMNSLRADDTAVYYCAKDFQLRLLRYFDWLSSPFDHWGQGTLVTVSS
VL: DIQLTQSPGTLSLSPGERATLSCRASQSIRSNFLAWYQQTPGQGPRLLIYGASSRATGIPDRFSGSGSGTDFTLTISGLEPEDFAVYYCQQYASSPQTFGQGTKVEIK
binding result [2]: binds

B3: H5-Ab6 (antibody, V domains shown)
VH: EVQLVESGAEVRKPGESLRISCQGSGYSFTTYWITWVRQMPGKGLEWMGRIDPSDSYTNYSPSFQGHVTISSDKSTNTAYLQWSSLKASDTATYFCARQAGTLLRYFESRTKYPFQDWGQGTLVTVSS
VL: EIVLTQSPGTLSLSPGERATLSCRASQSVSGGYLAWYQQRPGQAPRLLISGASTRATGIPDRFSGSGSGTDFTLTISGLEPEDFAVYYCQQYGDSPAYTFGQGTKVEIK
binding result [3]: binds
binding result [4]: binds
binding result ([2]; one partner purified): binds
binding result [5]: binds
